Source: patent US20210388087A1 (Chugai, published 2021)

B1: H183/L072 VL F55E (antibody, name in Kabat numbering, V domains shown)
VH: QVQLVESGGGLVQPGRSLRLSCAASGFTFSNAWMHWVRQAPGKGLEWVAQIKDKGNAYAAYYAPSVKGRFTISRDDSKNSIYLQMNSLKTEDTAVYYCHYVHYASASTVLPAFGVDAWGQGTTVTVSS
VL: DIVMTQSPLSLPVTPGEPASISCQASQELVHMNRNTYLHWYQQKPGQAPRLLIYKVSNREPGVPDRFSGSGSGTDFTLKISRVEAEDVGVYYCAQGTSVPFTFGQGTKLEIK
B2: H183/L072 VL F55P (antibody, name in Kabat numbering, V domains shown)
VH: QVQLVESGGGLVQPGRSLRLSCAASGFTFSNAWMHWVRQAPGKGLEWVAQIKDKGNAYAAYYAPSVKGRFTISRDDSKNSIYLQMNSLKTEDTAVYYCHYVHYASASTVLPAFGVDAWGQGTTVTVSS
VL: DIVMTQSPLSLPVTPGEPASISCQASQELVHMNRNTYLHWYQQKPGQAPRLLIYKVSNRPPGVPDRFSGSGSGTDFTLKISRVEAEDVGVYYCAQGTSVPFTFGQGTKLEIK
B3: H183/L072 VL F55G (antibody, name in Kabat numbering, V domains shown)
VH: QVQLVESGGGLVQPGRSLRLSCAASGFTFSNAWMHWVRQAPGKGLEWVAQIKDKGNAYAAYYAPSVKGRFTISRDDSKNSIYLQMNSLKTEDTAVYYCHYVHYASASTVLPAFGVDAWGQGTTVTVSS
VL: DIVMTQSPLSLPVTPGEPASISCQASQELVHMNRNTYLHWYQQKPGQAPRLLIYKVSNRGPGVPDRFSGSGSGTDFTLKISRVEAEDVGVYYCAQGTSVPFTFGQGTKLEIK
B4: H183/L072 VL F55S (antibody, name in Kabat numbering, V domains shown)
VH: QVQLVESGGGLVQPGRSLRLSCAASGFTFSNAWMHWVRQAPGKGLEWVAQIKDKGNAYAAYYAPSVKGRFTISRDDSKNSIYLQMNSLKTEDTAVYYCHYVHYASASTVLPAFGVDAWGQGTTVTVSS
VL: DIVMTQSPLSLPVTPGEPASISCQASQELVHMNRNTYLHWYQQKPGQAPRLLIYKVSNRSPGVPDRFSGSGSGTDFTLKISRVEAEDVGVYYCAQGTSVPFTFGQGTKLEIK
B5: H183/L072 VL F55V (antibody, name in Kabat numbering, V domains shown)
VH: QVQLVESGGGLVQPGRSLRLSCAASGFTFSNAWMHWVRQAPGKGLEWVAQIKDKGNAYAAYYAPSVKGRFTISRDDSKNSIYLQMNSLKTEDTAVYYCHYVHYASASTVLPAFGVDAWGQGTTVTVSS
VL: DIVMTQSPLSLPVTPGEPASISCQASQELVHMNRNTYLHWYQQKPGQAPRLLIYKVSNRVPGVPDRFSGSGSGTDFTLKISRVEAEDVGVYYCAQGTSVPFTFGQGTKLEIK
B6: H183/L072 VL F55I (antibody, name in Kabat numbering, V domains shown)
VH: QVQLVESGGGLVQPGRSLRLSCAASGFTFSNAWMHWVRQAPGKGLEWVAQIKDKGNAYAAYYAPSVKGRFTISRDDSKNSIYLQMNSLKTEDTAVYYCHYVHYASASTVLPAFGVDAWGQGTTVTVSS
VL: DIVMTQSPLSLPVTPGEPASISCQASQELVHMNRNTYLHWYQQKPGQAPRLLIYKVSNRIPGVPDRFSGSGSGTDFTLKISRVEAEDVGVYYCAQGTSVPFTFGQGTKLEIK
B7: H183/L072 VL F55K (antibody, name in Kabat numbering, V domains shown)
VH: QVQLVESGGGLVQPGRSLRLSCAASGFTFSNAWMHWVRQAPGKGLEWVAQIKDKGNAYAAYYAPSVKGRFTISRDDSKNSIYLQMNSLKTEDTAVYYCHYVHYASASTVLPAFGVDAWGQGTTVTVSS
VL: DIVMTQSPLSLPVTPGEPASISCQASQELVHMNRNTYLHWYQQKPGQAPRLLIYKVSNRKPGVPDRFSGSGSGTDFTLKISRVEAEDVGVYYCAQGTSVPFTFGQGTKLEIK
B8: H183/L072 VL F55T (antibody, name in Kabat numbering, V domains shown)
VH: QVQLVESGGGLVQPGRSLRLSCAASGFTFSNAWMHWVRQAPGKGLEWVAQIKDKGNAYAAYYAPSVKGRFTISRDDSKNSIYLQMNSLKTEDTAVYYCHYVHYASASTVLPAFGVDAWGQGTTVTVSS
VL: DIVMTQSPLSLPVTPGEPASISCQASQELVHMNRNTYLHWYQQKPGQAPRLLIYKVSNRTPGVPDRFSGSGSGTDFTLKISRVEAEDVGVYYCAQGTSVPFTFGQGTKLEIK
B9: H183/L072 VL F55R (antibody, name in Kabat numbering, V domains shown)
VH: QVQLVESGGGLVQPGRSLRLSCAASGFTFSNAWMHWVRQAPGKGLEWVAQIKDKGNAYAAYYAPSVKGRFTISRDDSKNSIYLQMNSLKTEDTAVYYCHYVHYASASTVLPAFGVDAWGQGTTVTVSS
VL: DIVMTQSPLSLPVTPGEPASISCQASQELVHMNRNTYLHWYQQKPGQAPRLLIYKVSNRRPGVPDRFSGSGSGTDFTLKISRVEAEDVGVYYCAQGTSVPFTFGQGTKLEIK
B10: H183/L072 VL F55Q (antibody, name in Kabat numbering, V domains shown)
VH: QVQLVESGGGLVQPGRSLRLSCAASGFTFSNAWMHWVRQAPGKGLEWVAQIKDKGNAYAAYYAPSVKGRFTISRDDSKNSIYLQMNSLKTEDTAVYYCHYVHYASASTVLPAFGVDAWGQGTTVTVSS
VL: DIVMTQSPLSLPVTPGEPASISCQASQELVHMNRNTYLHWYQQKPGQAPRLLIYKVSNRQPGVPDRFSGSGSGTDFTLKISRVEAEDVGVYYCAQGTSVPFTFGQGTKLEIK
B11: H183/L072 VL F55H (antibody, name in Kabat numbering, V domains shown)
VH: QVQLVESGGGLVQPGRSLRLSCAASGFTFSNAWMHWVRQAPGKGLEWVAQIKDKGNAYAAYYAPSVKGRFTISRDDSKNSIYLQMNSLKTEDTAVYYCHYVHYASASTVLPAFGVDAWGQGTTVTVSS
VL: DIVMTQSPLSLPVTPGEPASISCQASQELVHMNRNTYLHWYQQKPGQAPRLLIYKVSNRHPGVPDRFSGSGSGTDFTLKISRVEAEDVGVYYCAQGTSVPFTFGQGTKLEIK
B12: H183/L072 VL F55L (antibody, name in Kabat numbering, V domains shown)
VH: QVQLVESGGGLVQPGRSLRLSCAASGFTFSNAWMHWVRQAPGKGLEWVAQIKDKGNAYAAYYAPSVKGRFTISRDDSKNSIYLQMNSLKTEDTAVYYCHYVHYASASTVLPAFGVDAWGQGTTVTVSS
VL: DIVMTQSPLSLPVTPGEPASISCQASQELVHMNRNTYLHWYQQKPGQAPRLLIYKVSNRLPGVPDRFSGSGSGTDFTLKISRVEAEDVGVYYCAQGTSVPFTFGQGTKLEIK
B13: H183/L072 VL F55M (antibody, name in Kabat numbering, V domains shown)
VH: QVQLVESGGGLVQPGRSLRLSCAASGFTFSNAWMHWVRQAPGKGLEWVAQIKDKGNAYAAYYAPSVKGRFTISRDDSKNSIYLQMNSLKTEDTAVYYCHYVHYASASTVLPAFGVDAWGQGTTVTVSS
VL: DIVMTQSPLSLPVTPGEPASISCQASQELVHMNRNTYLHWYQQKPGQAPRLLIYKVSNRMPGVPDRFSGSGSGTDFTLKISRVEAEDVGVYYCAQGTSVPFTFGQGTKLEIK
B14: H183/L072 VL F55N (antibody, name in Kabat numbering, V domains shown)
VH: QVQLVESGGGLVQPGRSLRLSCAASGFTFSNAWMHWVRQAPGKGLEWVAQIKDKGNAYAAYYAPSVKGRFTISRDDSKNSIYLQMNSLKTEDTAVYYCHYVHYASASTVLPAFGVDAWGQGTTVTVSS
VL: DIVMTQSPLSLPVTPGEPASISCQASQELVHMNRNTYLHWYQQKPGQAPRLLIYKVSNRNPGVPDRFSGSGSGTDFTLKISRVEAEDVGVYYCAQGTSVPFTFGQGTKLEIK

Biological target: T1, Human CD3eg linker (human)
T1 construct: Single-chain construct; also called recombinant human CD3
T1 chain: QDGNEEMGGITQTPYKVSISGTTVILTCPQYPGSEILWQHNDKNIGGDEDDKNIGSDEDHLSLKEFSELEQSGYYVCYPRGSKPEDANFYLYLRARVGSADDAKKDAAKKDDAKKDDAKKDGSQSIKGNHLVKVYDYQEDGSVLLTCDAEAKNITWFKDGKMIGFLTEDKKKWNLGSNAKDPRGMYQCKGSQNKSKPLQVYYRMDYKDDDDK
Experiment: SPR; fold vs parent H183/L072
For B1, the “fold change of affinity” value was 3.4 fold.
With B2 the “fold change of affinity” value was 8.1 fold.
B3 was tested, and the “fold change of affinity” value was 8.1 fold.
For B4, the “fold change of affinity” value was 6.6 fold.
B5 was tested, and the “fold change of affinity” value was 4.4 fold.
With B6 the “fold change of affinity” value was 3.4 fold.
In the case of B7, the “fold change of affinity” value is reported as 8.3 fold.
With B8 the “fold change of affinity” value was 4.2 fold.
In the case of B9, the “fold change of affinity” value is reported as 4 fold.
B10 was tested, and the “fold change of affinity” value was 2.9 fold.
In the case of B11, the “fold change of affinity” value is reported as 7.4 fold.
With B12 the “fold change of affinity” value was 2.9 fold.
B13 was tested, and the “fold change of affinity” value was 3.6 fold.
B14 was tested, and the “fold change of affinity” value was 3.9 fold.
